According to article PMC5031558:

Biological target: HOIP PUB domain (aa 1–184) (UniProt Q96EP0)
Experiment: fluorescence polarisation; FITC-Ahx-labeled PIM peptides with purified PUB domains; triplicate

Sequence of HOIP PUB domain (aa 1–184) (Q96EP0 1-184): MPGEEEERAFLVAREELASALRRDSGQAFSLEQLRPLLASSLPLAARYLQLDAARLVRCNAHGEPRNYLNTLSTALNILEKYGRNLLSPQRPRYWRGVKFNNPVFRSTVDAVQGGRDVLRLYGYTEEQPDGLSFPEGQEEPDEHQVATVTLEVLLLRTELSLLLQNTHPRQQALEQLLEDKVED

Row | Substance | Kd
1 | FITC-Ahx-labeled OTULIN PIM peptide | 300 nM
2 | FITC-Ahx-labeled SPATA2 PIM peptide | 300 nM
